Test results from patent US7230094B2, “Neutral sphingomyelinase antisense ribozyme and uses thereof” (priority 2001, dated 2007).

Columns and labels:
Type in all cases: cell-based, human
N-SMase mRNA = N-SMase mRNA by Northern analysis and RT-PCR in transfected MG63 clones
Description: RNA was originally extracted from a single confluent (90%) T-75 flask using Trizol. […] Next, poly-A^+ RNA was extracted from 3 confluent T-75 flasks, loading 3.5 μg/lane. Northern gels were standard, using 1.2% agarose, 1×MOPS, and 6.5% formaldehyde. RNA was transferred to nylon membranes with a standard wick system. The cDNA probe was derived from the cDNA construct, pHH11. An EcoR-1/SpeI fragment, containing a three hundred base pair probe was prepared. This was radiolabeled with [^32P]-dCTP and the random primer labeling system.
Clone CC had no detectable N-SMase mRNA by Northern analysis, so RT-PCR was performed to quantitate the reduction. Compared to a control-transfected clone (WT), there was a 50% reduction in mRNA in clone CC (ribozyme). This was confirmed by western blot analysis of the transfected and control clones for N-SMase.

fibronectin = test: Immunocytochemical analysis of cells, fibronectin antibody (specificity control); conditions: lines harboring pU1/N-SMase vs pZeoSVLacZ vs untransfected cells
Description: Wild-type (WT) MG-63 cells and MG-63 cells transfected with LacZ constructs (L-3) and ribozyme expression constructs for the inhibition of N-SMase expression (CC) were analyzed by immunocytochemistry. The antibodies either recognized epitopes in fibronectin (control) or N-SMase. The analysis was performed in duplicates for the MG-63 cell line and the two mutant colonies.

N-SMase = test: TNF-α and Fas ligand induced N-SMase activity in WT and mutant cells; conditions: for Basal activity of N-SMase: unstimulated CC cells, 2.7±0.1 in MG63 control cells, ±S.D., N=3
Description: FIGS. 4A–4B depict the effects of incubation with TNF-α (FIG. 4A) and Fas ligand (FIG. 4B) over time on the activity of N-SMase in mutant and WT cells. Confluent cultures of WT (MG-63) and mutant (CC) cells were incubated with serum free medium with or without TNF-α ([…]) or Fas ligand (1 ng/ml). At the indicated intervals, cells were harvested, centrifuged, and lysed in buffer containing 0.1% Triton™ X-100, 25 mM Tris (pH 7.4), 5 mM EDTA, 1 mM phenylmethylsulfonyl fluoride (PMSF), and 2 μg each of chymostatin, leupeptin, antipain, and pepstatin A. 100 μl of a reaction mixture containing 50 mM Tris (pH 7.4), 5 mM MgCl2, 0.05% Triton™ X-100, 5 mM dithiothreitol (DTT) and 10 nmol [^14C] sphingomyelin (100,000 cpm) was added to 5–10 μl of cell lysate (100 μg protein). The basal activity of N-SMase was 2.7±0.1 nmol/mg protein/hr in MG63 cells and 0.67±0.1 nmol/mg protein/hr in CC cells. These levels were defined as 100% activity. Error bars indicate ±S.D. (N=3).
Tumor necrosis factor alpha (TNF-α) is known to induce programmed cell death through stimulation of sphingomyelinase activity and generation of ceramide. This example describes the ability of the ribozyme directed against N-SMase to inhibit this pathway. The effects of incubation with TNF-α and Fas ligand over time on the activity of N-SMase in mutant and WT cells are shown in FIGS. 4A and 4B, respectively. Confluent cultures of WT (MG-63) and mutant (CC) cells were incubated with serum free medium with or without TNF-α ([…]) or Fas ligand (1 ng/ml), and the activity of N-SMase was determined by measuring the cleavage of [^14C]sphingomyelin. At 0, 10, 20, 30, 40, 50, and 60 minutes, cells were harvested, centrifuged, and lysed in buffer containing 0.1% Triton™ X-100, 25 mM Tris (pH 7.4), 5 mM EDTA, 1 mM phenylmethylsulfonyl fluoride (PMSF), and 2 μg each of chymostatin, leupeptin, antipain, and pepstatin A. 100 μl of a reaction mixture containing 50 mM Tris (pH 7.4), 5 mM MgCl2, 0.05% Triton™ X-100, 5 mM dithiothreitol (DTT) and 10 nmol [^14C]sphingomyelin (100,000 cpm) was added to 5–10 μl of cell lysate (100 μg protein). The basal activity of N-SMase was 2.7±0.1 nmol/mg protein/hr in MG63 cells and 0.67±0.1 nmol/mg protein/hr in CC cells. These levels were defined as 100% activity.

MG-63 cells = test: Apoptosis by DAPI staining and counting of apoptotic cells; conditions: for Apoptosis in response to TNF-α and Fas-L: cells with ribozyme-induced deficiency of N-SMase, TNF-α 20 ng/ml, Fas-L 1 ng/ml, 24 hr
Description: FIG. 6 depicts a quantitative analysis of the effects of TNF-α, C2-Ceramide and Fas-ligand on apoptosis in mutant (CC) and WT (MG-63) cells, as well as wild type/mock transfected cells. Cells were grown on glass cover slips and incubated for 24 hours with TNF-α (20 ng/ml), cell-permeable ceramide (C2-Ceramide) (10 ng/ml) or Fas-L (1 ng/ml). Cells were fixed and stained with DAPI and photographed at 50× magnification. Apoptotic cells were counted using a hemocytometer. The basal levels of apoptotic cells were: MG-63 (3%); L-3 (3%); and CC (2.8%). Errors bars indicate ±S.D. (N=2).
WT (MG-63), LacZ (L-3) and mutant (CC) cells were grown on glass cover slips and incubated for 24 hr with TNF-α (20 ng/ml), cell-permeable ceramide (C2-ceramide) (10 ng/ml) or Fas-L (1 ng/ml). Cells were fixed and stained with DAPI stain and photographed (50×). Apoptotic cells were counted using a hemocytometer and compared to total cell counts per field. Basal levels of apoptosis were 3% untransfected, 3% control transfection, and 2.8% ribozyme transfection.

B1: N-SMase ribozyme: U1 snRNA-derived hammerhead antisense ribozyme targeting N-SMase mRNA, expressed from vector pNSMRz; stably transfected MG63 clones CC and C-B (nucleic acid, listed as Homo sapiens)
chain: AUACUUACCUGGCAGGGGAGAUACCAUGAUCACGAAGGUGGUUUUCCCAGGGCGAGGCUUAUCCAUUGGCCUCCGGAUGUGCUGACCCCUGCGAUUUCCCCAAAUGUGGGAAACUCGACUGCAGAAUAUGUCAUCAUAUUGCCUGAUGAGUCCGUGAGGACGAAACCUCUUCACAUGAAAAAGUGGGGCUGCGUUCGCGCUUCCCCG
In the case of B1, the “N-SMase mRNA by Northern analysis” value (N-SMase mRNA; clone CC) is reported as “no detectable”, the “Reduction in N-SMase mRNA by RT-PCR” value (N-SMase mRNA; clone CC compared to a control-transfected clone (WT)) is reported as 50% and the “Immunohistochemical staining with monoclonal antibody to fibronectin” value (fibronectin) is reported as “No differences were observed”. For the same molecule, the “N-SMase activity under cytokine stimulation” value (N-SMase; ribozyme cells stimulated with TNF-α and Fas-L, sham-transfected cells 4.0) was 0.75 nmol/mg protein/hr, the “Change of N-SMase activity after addition of TNF-α” value (N-SMase; ribozyme transfected cells, 0-60 min, FIG. 4A) was “no significant difference” and the “Basal activity of N-SMase” value (N-SMase) was 0.67±0.1 nmol/mg protein/hr. For the same molecule, the “Basal activity of N-SMase” value (N-SMase; listed as antisense ribozyme) was 0.67 nmol/mg protein/hr, the “Basal level of apoptotic cells” value (MG-63 cells; CC (ribozyme transfection), DAPI, 3% untransfected, 3% control transfection) was 2.8% and the “Apoptosis in response to TNF-α and Fas-L” value (MG-63 cells) was “marked hyporesponsiveness”. The “Apoptosis in response to TNF-α and Fas-L” value (MG-63 cells; listed as antisense ribozyme) was “not altered” and the “Apoptosis in response to TNF-α and Fas-L” value (MG-63 cells; listed as ribozyme) was “marked resistance to apoptosis”.
